{"source": "paper PMC5389851", "target": "HCMV glycoprotein gO (virion, strain TB40) (human cytomegalovirus strain TB40 (endogenous in virions))", "data": [{"substance": "recombinant human PDGFR-α-Fc fusion protein (from UniProt P16234)", "values": [{"measurement": "infection of HFF with wt TB40-luc virus pre-incubated with PDGFR-α-Fc (one hour at 4°C; luciferase assay), residual infection; blocks gH/gL/gO of virions with PDGFR-α on HFF", "result": 0.5, "unit": "%"}]}]}
